Results: patent publication US20150291667A1

Target: T1, CdtA-CdtC heterodimer
T1 chain 1: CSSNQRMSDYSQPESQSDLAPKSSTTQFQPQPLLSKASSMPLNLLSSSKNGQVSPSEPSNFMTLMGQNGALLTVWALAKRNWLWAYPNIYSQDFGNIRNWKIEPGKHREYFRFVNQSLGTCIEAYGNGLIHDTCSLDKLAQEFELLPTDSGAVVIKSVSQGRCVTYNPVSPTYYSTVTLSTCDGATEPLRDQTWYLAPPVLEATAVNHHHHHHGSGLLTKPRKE
T1 chain 2: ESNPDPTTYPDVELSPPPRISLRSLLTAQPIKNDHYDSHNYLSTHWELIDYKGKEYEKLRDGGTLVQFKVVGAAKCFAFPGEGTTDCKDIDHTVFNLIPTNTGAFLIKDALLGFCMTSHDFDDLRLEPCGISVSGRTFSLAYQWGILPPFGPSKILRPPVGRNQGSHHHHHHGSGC

B1: CdtB/DNase I hybrid protein (protein)
chain: NLSDFKVATWNLQGSSAVNESKWNINVRQLLSGEQGADILMVQEAGSLPSSAVRTSRVIQHGGTPIEEYTWNLGTRSRPNMVYIYYSRLDVGANRVNLAIVSRRQADEAFIVHSDSSVLQSRPAVGIRIGTDVFFTVHAAPGDAVAEIDALYDVYLDVQEKWGLEDVMLMGDFNAGCSYVRPSQWSSIRLWTSPTFQWLIPDSADTTATPTHCAYDRIVVAGMLLRGAVVPDSALPFNFQAANGLSDQLAQAISDHYPVEVMLKHHHHHHHMLEDPAANKAQKK
- DNA nicking activity of reconstituted heterotrimer preparations (subunit protection): reconstituted heterotrimer preparations containing the CdtB/DNase I hybrid protein failed to convert supercoiled DNA to linear and relaxed forms
